Data reported in doi:10.1101/2024.03.04.583391 (bioRxiv, 2024).

Molecular target: T1, DIP-β-G, recombinant protein for SPR (Drosophila melanogaster)
T1 chain: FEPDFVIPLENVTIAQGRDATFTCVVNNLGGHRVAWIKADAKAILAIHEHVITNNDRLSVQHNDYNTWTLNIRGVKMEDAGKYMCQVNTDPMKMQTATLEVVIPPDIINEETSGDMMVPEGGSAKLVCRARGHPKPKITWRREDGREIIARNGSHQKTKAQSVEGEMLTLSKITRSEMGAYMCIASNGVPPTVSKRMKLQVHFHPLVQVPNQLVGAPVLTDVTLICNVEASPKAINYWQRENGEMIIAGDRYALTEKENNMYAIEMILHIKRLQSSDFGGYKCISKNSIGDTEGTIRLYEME
Assay: SPR

- Kd: 5.76 µM
B1: Dpr10-A, recombinant protein for SPR (domain or fragment, Drosophila melanogaster)
chain: WNEPYFDLTMPRNITSLVGKSAYLGCRVKHLGNKTVAWIRHRDLHILTVGTYTYTTDQRFQTSYHRDIDEWTLQIKWAQQRDAGVYECQISTQPVRSYSVNLNIVDLIDAETSDIMQQYYNDDAFYIAENRVYQSSNDEFAGMFGPIQTVAVPTATILGGPDLYVDKGSTINLTCIIKFSPEPPTHIFWYHQDKVLSEETSGGRLKFKTIKSEETKSILLIYDADLLHSGKYSCYPSNTEIASIRVHVLQGE
